Results on 10 molecules are retold here after patent US9012420B2, “Aptamer for chymase, and use thereof” (Ribomic Inc., priority 2009, dated 2015).

First the molecules themselves.
T1: chymase (Homo sapiens, UniProt P23946)
T1 sequence (P23946 22-247): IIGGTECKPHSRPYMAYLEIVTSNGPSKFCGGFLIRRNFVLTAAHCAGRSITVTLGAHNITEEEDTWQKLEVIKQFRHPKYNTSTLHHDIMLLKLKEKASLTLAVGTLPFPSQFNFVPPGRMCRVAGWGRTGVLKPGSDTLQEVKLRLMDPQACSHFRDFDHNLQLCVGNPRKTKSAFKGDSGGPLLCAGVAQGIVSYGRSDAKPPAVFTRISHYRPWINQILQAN

T2: chymase (recombinant, manufactured by SIGMA) (Homo sapiens, UniProt P23946)
T2 construct: purchased SIGMA; host or cells: yeast
T2 sequence (P23946 22-247): T1 sequence (P23946 22-247)

B1: 42 (nucleic acid)
chain: GGGAGCAGGAGAGAGGUCAGAUGCGUGAUCGUGCAAGGCGGAUAGAGUUAAGGCCUAUGCGUGCUAGUGUGA
modifications: aptamer; 2'-fluoro at CU, RNA at AG, backbone not given here
B2: 40 (nucleic acid)
chain: GGGAGCAGGAGAGAGGUCAGAUGAACGGAUAGAGCUAAGAGUUCGUCAGAGGGGCCUAUGCGUGCUAGUGUGA
modifications: 2'-fluoro at CU, RNA at AG, backbone not given here
B3: 43 (nucleic acid)
chain: GGGAGCAGGAGAGAGGUCAGAUGAUGCCAAGAUAGAUUUAAAUGGCGUUUGGGCCUAUGCGUGCUAGUGUGA
modifications: aptamer; 2'-fluoro at CU, RNA at AG, backbone not given here
B4: 41 (nucleic acid)
chain: GGGAGCAGGAGAGAGGUCAGAUGGUGAGAUAGAGUUAAACACCACAAUAGUAGCCUAUGCGUGCUAGUGUGA
modifications: aptamer; 2'-fluoro at CU, RNA at AG, backbone not given here
B5: 44 (nucleic acid)
chain: GGGAGCAGGAGAGAGGUCAGAUGUUAGACCAAAGCAUAGGAGAUAGAGUUAAACCUAUGCGUGCUAGUGUGA
modifications: aptamer; 2'-fluoro at CU, RNA at AG, backbone not given here
B6: 46 (nucleic acid)
chain: GGGAGCAGGAGAGAGGUCAGAUGGGACAGAUAGAGUUAAAGUCCGUUACGUGGCCUAUGCGUGCUAGUGUGA
modifications: aptamer; 2'-fluoro at CU, RNA at AG, backbone not given here
B7: 47 (nucleic acid)
chain: GGGAGCAGGAGAGAGGUCAGAUGGUGAUAGAUAGAGUUAAAAUCGCUGAAUGGCCUAUGCGUGCUAGUGUGA
modifications: aptamer; 2'-fluoro at CU, RNA at AG, backbone not given here
B8: 45 (nucleic acid)
chain: GGGAGCAGGAGAGAGGUCAGAUGGACCACCGAUGGGCAAGAUAGAGUUAAAUGCCUAUGCGUGCUAGUGUGA
modifications: aptamer; 2'-fluoro at CU, RNA at AG, backbone not given here
B9: 38 (nucleic acid)
chain: GGGAGCAGGAGAGAGGUCAGAUGGAUAGAGUUAAGAUCUGGCUGGCGCAUUAGCCUAUGCGUGCUAGUGUGA
modifications: aptamer; 2'-fluoro at CU, RNA at AG, backbone not given here
B10: 48 (nucleic acid)
chain: GGGAGCAGGAGAGAGGUCAGAUGUGAAGAUAGAGAUAAAUCACAUACAGUCGGCCUAUGCGUGCUAGUGUGA
modifications: aptamer; 2'-fluoro at CU, RNA at AG, backbone not given here

One series has as its target T1, chymase. Put plainly: Surface plasmon resonance (Biacore T100), aptamer immobilized on SA chip, chymase injected as analyte. The conditions noted are these: Table 2; same manner as Example 1, running buffer solution C; compared with 30N. It is filed as binding. Also noted: key: ++: a sequence that binds to chymase significantly more strongly than the negative control 30N. As for the experimental part:
Binding strength is measured using Biacore T100 (manufactured by GE Healthcare). In a method of measurement, the aptamer is first immobilized onto a sensor chip, the amount immobilized being about 1000 RU. 20 μL of a chymase solution for analyte, prepared at 0.2 μM, is injected, and the binding of chymase to the aptamer is detected. An RNA comprising a random nucleotide sequence of 30 or 40 nucleotides is used as a negative control.
The binding activities against chymase of the nucleic acids shown by SEQ ID NO: 4-20 and 22-34 were determined by the surface plasmon resonance method using Biacore T100 (manufactured by GE Healthcare). The sensor chip used was the SA chip, which had streptavidin immobilized thereon. Bound thereto was about 1500 RU of a 16-nucleotide Poly dT with biotin bound to the 5′ end thereof. […] 20 μL of chymase for analyte, prepared at 0.2 μM, was injected. Solution A was used as a running buffer.
The binding activities against chymase of the nucleic acids shown by SEQ ID NO: 38-48 were evaluated by the surface plasmon resonance method. In the evaluations for SEQ ID NO: 38-48, measurements were taken in the same manner as Example 1. Solution C was used as a running buffer.
B1: the “Binding activity as determined using Biacore” value (from here on “Binding activity as determined”) is recorded as “++”.
Regarding B2, the “Binding activity as determined” value is on record as “++”.
The same measure, in the same setting: with B3 the entry was “++”.
Turning to B4, the “Binding activity as determined” value was “++”.
Same read-out and setting: the entry for B5 is “++”; for B6 it is “++”.
Same read-out and setting: with B7 the entry was “++”; with B8, “++”.
Turning to B9, the “Binding activity as determined” value is listed as “++”.
For B10, the “Binding activity as determined” value is on record as “++”.

The target of a further series is T2, chymase (recombinant, manufactured by SIGMA). Kind of series: Chymase inhibitory activity using synthetic substrate Suc-Ala-Ala-Pro-Phe-MCA. The conditions noted are these: Table 3; substrate 100 μM, solution C, 37° C.; mean value for 2 to 3 measurements. It is filed as biochemical. Put shortly:
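Human recombinant chymase (16.7 nM or 1.67 nM final) preincubated 5 min at 37° C., then added to nucleic acid (0.0027–2 μM serial dilutions) and 100 μM substrate in solution C. AMC fluorescence (ex 380/em 460 nm) followed 5 or 30 min at 37° C.; slope gives initial velocity, inhibition versus no-inhibitor control yields IC50.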
By IC50 is commonly meant the concentration needed to halve the response being measured. With B1, the IC50 was 124 ± 26 nM.
Still for that read-out and setting: with B2 the figure was 140 ± 85 nM; with B3, 81 ± 50 nM.
The same measure, in the same setting: with B4 the figure was 60 ± 17 nM.
B5: the half-maximal inhibitory concentration (IC50) was found to be 49 ± 13 nM.
As for B6, the half-inhibitory concentration (IC50) was determined as 38 ± 4 nM.
Still for that read-out and setting: the figure for B7 is 58 ± 12 nM; for B8 it is 74 ± 11 nM; for B9 it is 50 ± 12 nM.
As to B10, the IC50 was 95 ± 18 nM.
